# Source: patent publication US20250264455A1 (HELMHOLTZ ZENTRUM M NCHEN DEUTSCHES FORSCHUNGSZENTRUM F R …, published 2025)
# B1: B-FABP-SpyCatcher003 (other)
# chain: MVEAFCATWKLTNSQNFDEYMKALGVGFATRQVGNVTKPTVIISQEGDKVVIRTLSTFKNTEISFQLGEEFDETTADDRNCKSVVSLDGDKLVHIQKWDGKETNFVREIKDGKMVMTLTFGDVVAVRHYEKAPPPPRTGPPPPRVTTLSGLSGEQGPSGDMTTEEDSATHIKFSKRDEDGRELAGATMELRDSSGKTISTWISDGHVKDFYLYPGKYTFVETAAPDGYEVATPIEFTVNEDGQVTVDGEATEGDAHT
# notes: also called B-FABP fused via SpyCatcher003
# B2: BFabp-αMoon-Tag (other)
# chain: MEVQLVESGGGLVQPGGSLRLSCAASGSISSVDVMSWYRQAPGKQRELVAFITDRGRTNYKVSVKGRFTISRDNSKNMVYLQMNSLKPEDTADYLCRAESRTSWSSPSPLDVWGRGTQVTVSSGGTGGSVEAFCATWKLTNSQNFDEYMKALGVGFATRQVGNVTKPTVIISQEGDKVVIRTLSTFKNTEISFQLGEEFDETTADDRNCKSVVSLDGDKLVHIQKWDGKETNFVREIKDGKMVMTLTFGDVVAVRHYEKA
# notes: also called B-Fabp Anti-Moon-Tag
# B3: BFabp-FLAG (other)
# chain: VEAFCATWKLTNSQNFDEYMKALGVGFATRQVGNVTKPTVIISQEGDKVVIRTLSTFKNTEISFQLGEEFDETTADDRNCKSVVSLDGDKLVHIQKWDGKETNFVREIKDGKMVMTLTFGDVVAVRHYEKAGSGDYKDDDDK
# notes: Purified over the FLAG tag
# B4: BM3h-SpyCatcher003 (other)
# chain: MTIKEMPQPKTFGELKNLPLLNTDKPVQALMKIADELGEIFKFEAPGRVTRYLSSQRLIKEACDESRFDKNLSQALKFVRDFAGDGLFTSWTHEKNWKKAHNILLPSFSQQAMKGYHAMMVDIAVQLVQKWERLNADEHIEVPEDMTRLTLDTIGLCGFNYRFNSFYRDQPHPFITSMVRALDEAMNKLQRANPDDPAYDENKRQFQEDIKVMNDLVDKIIADRKASGEQSDDLLTHMLNGKDPETGEPLDDENIRYQIITFLIAGHETTSGLLSFALYFLVKNPHVLQKAAEEAARVLVDPVPSYKQVKQLKYVGMVLNEALRLWPTAPAFSLYAKEDTVLGGEYPLEKGDELMVLIPQLHRDKTIWGDDVEEFRPERFENPSAIPQHAFKPFGNGQRACIGQQFALHEATLVLGMMLKHFDFEDHTNYELDIKETLTLKPEGFVVKAKSKKIPLPPPPRTGPPPPRVTTLSGLSGEQGPSGDMTTEEDSATHIKFSKRDEDGRELAGATMELRDSSGKTISTWISDGHVKDFYLYPGKYTFVETAAPDGYEVATPIEFTVNEDGQVTVDGEATEGDAHT
# notes: Heme domain of cytochrome P450 BM3 fused to SpyCatcher003; also called SpyCatcher-Bm3h
# Assays:
# [1] = target: T1, QtEnc-SpyTag(003) (Bacillus thermotolerans (Quasibacillus …, UniProt A0A0F5HPP7 1-282)); test: TEM, CN-PAGE shift and Western blot after co-expression in HEK cells (SpyTag003/SpyCatcher003 isopeptide)
# T1 construct: Q. thermotolerans encapsulin shell monomer with C-terminal SpyTag003; T=4 shell of 240 subunits; expressed in HEK cells; also called QtEnc decorated with SpyTags
# [2] = target: T2, LifeAct-emFPv4; test: Clear Native PAGE of co-expressing HEK293T lysate
# T2 construct: also called emFPv4 hub
# [3] = target: the molecule itself; test: native 12% Tris-Glycine gel of purified protein with BODIPY FL C16
# [4] = target: T1, QtEnc-SpyTag(003); test: TEM and CN-PAGE after co-expression in HEK cells (SpyTag003/SpyCatcher003 isopeptide)
binder,measurement,setting,value
B1,binding result,[1],binds
B2,binding result,[2],binds
B3,binding result,[3],binds
B4,binding result,[4],binds
